Consider three compounds from article PMC11839890 (European Journal of Nuclear Medicine and Molecular Imaging, 2024).

Non-standard residues stand in square brackets, D forms with d. *: point of attachment. DOTA = O=C(O)CN1CCN(CC(=O)O)CCN(CC(=O)*)CCN(CC(=O)O)CC1

One series concerns A431-CCK2R xenografts. The conditions noted are these: in vivo; cited from earlier work.
In another series the test system is A431-CCK2R cells. The conditions noted are these: cited from earlier work.
For the next series, the system named is tumour. The conditions noted are these: in vivo; cited from earlier work.
On the set-up of series [1]: method as in PMID 34208516. Conditions: established for humans from the rat study; cited from earlier work.
The nature of series [2]: Extended single-dose toxicity study in Wistar rats. The conditions noted are these: male, rat, in vivo, intravenous, for humans. The protocol:
The first clinical dose for the therapeutic application was established based on a previous extended singe-dose toxicity study performed on the chemical precursor DOTA-MGS5 in a GLP-compliant laboratory (BSL BIOSERVICE Scientific Laboratories Munich GmbH, Planegg/Munich, Germany). According to applicable guidelines a targeted programme of non-clinical testing was followed. The safety was assessed in a single species and no repeated dose study was performed, as complete clearance between administrations is expected. The study was conducted in male Wister rats and included three dose groups and one control group. The histopathological examination was focused on the main target organs.

For “[^177Lu]Lu-DOTA-PP-F11N: 177Lu-labelled DOTA-(DGlu)6-Ala-Tyr-Gly-Trp-Nle-Asp-Phe-NH2 (AYGW; 177Lu-DOTA-(DGlu)6, Nle-Asp-Phe-NH2; printed: Ala-Tyr-Gly-Trp-)”, the tumour uptake in the series with A431-CCK2R xenografts is reported as ~ 7 %ID/g. The Bmax in the series on A431-CCK2R cells (A431-CCK2R cells, nM printed only with the first value of the sentence) was 0.54 ± 0.10 nM. The Kd – broadly, the free concentration of one partner at which half of the binding sites on the other are occupied at equilibrium, for simple one-to-one binding – in the series with A431-CCK2R cells (same cell line (A431-CCK2R), nM printed only with the PP-F11N value) is 50 ± 7.3 nM.

“[^111In]In-DOTA-MG11: 111In-labelled DOTA-MG11 (DOTA-DGlu-Ala-Tyr-Gly-Trp-Met-Asp-Phe-NH2) ({DOTA}-[dE]AYGWMDF-NH2; also: 111In complexed by DOTA)”: the tumour uptake in the series on tumour was 2–3 % ID/g.

Regarding `CCCC[C@@H](C(=O)N[C@@H](CC(=O)O)C(=O)N[C@@H](Cc1cccc2ccccc12)C(N)=O)N(C)C(=O)[C@H](Cc1c[nH]c2ccccc12)NC(=O)CNC(=O)[C@H](Cc1ccc(O)cc1)NC(=O)[C@H](C)NC(=O)[C@@H](CCC(=O)O)NC(=O)CN1CCN(CC(=O)O)CCN(CC(=O)O)CCN(CC(=O)O)CC1` [DOTA-MGS5, DOTA-DGlu-Ala-Tyr-Gly-Trp-(N-Me)Nle-Asp-1-Nal-NH2], the “NOAEL (no observed adverse effect level)” value in series [1] was 0.4 mg/kg body weight. Further, the 1/100 of NOAEL in series [2] was found to be 4 µg/kg.
